The assay deals with HRD1 (HMG-CoA reductase degradation protein 1, synoviolin) (UniProt Q86TM6). Description: anti-Myc co-IP, anti-Flag blot. The note with it: reference: WT Flag-PFKP; sites S386.

On to “PFKP (platelet isoform of phosphofructokinase) (from UniProt Q01813) Flag-PFKP S386A”, for which the “binding against the reference” value was “stronger”.

(Values after article PMC7883444.)
